Source: patent US7906616B2, “Truncated DANCE, DANCE complex and method of using these” (Kansai Medical University, priority 2004, dated 2011)
Changes are numbered by the printed parent chain. Values belong to the molecule of their own block, whether it stands above or below them.

What was measured:
[1] = system: DANCE-specific protease; experiment: Inhibition of DANCE cleavage by protease inhibitors in transfected 293T cells; assay type: cell-based; conditions: 293T cells expressing human DANCE, serum-free medium with inhibitor, 48 hours; Western blotting with anti-FLAG M2
Experimental: 293T cells were used in expression experiments. Transfection was performed using the Lipofect AMINE Plus reagent as directed in the product instructions. 24 hours after transfection, the medium was exchanged with serum-free medium, and cultivation was continued for 48 hours; the resulting supernatant or cell lysate was used for Western blotting and in vitro binding assay.
A human DANCE cDNA with FLAG tag and 6×His tag added to the carboxyl terminus thereof was transfected to 293T cells; the cells were cultured using a serum-free medium comprising a cysteine protease inhibitor (E64) or serine protease inhibitor (aprotinin) for 48 hours; a recombinant protein was precipitated from the culture supernatant using Ni-NTA agarose and was developed by SDS-PAGE and Western blotting was performed using anti-FLAG M2 antibody.

[2] = system: DANCE-specific protease; experiment: Cleavage of mutated versus normal form of DANCE expressed in 293T cells; assay type: cell-based, human; conditions: Arg77 substituted with Ala, serum-free medium 48 hours, Western blotting with anti-FLAG M2
Description: The 77th amino acid of human DANCE, arginine, was substituted with alanine using the Quick Change in vitro mutagenesis kit (Stratagene). The other procedures were the same as pEF6-hDANCE-FLAG.
An expression vector for the mutated form of DANCE resulting from the substitution of the 77th arginine of DANCE with alanine (with C-terminal FLAG and 6×His tag) (FIG. 7), and an expression vector for normal form of DANCE (with C-terminal FLAG and 6×His tag) were transfected to 293T cells; the cells were cultured using serum-free medium for 48 hours; a recombinant protein was precipitated from the culture supernatant using Ni-NTA agarose, and developed by SDS-PAGE, and Western blotting was performed using anti-FLAG M2 antibody.

[3] = system: vascular endothelial cells; experiment: Vascular endothelial cell adhesion assay; assay type: cell-based; conditions: purified recombinant protein used for coating
Description: Full-length DANCE promotes the adhesion and extension of vascular endothelial cells via cell surface integrin. The present inventor has reported to date that full-length DANCE can serve as a ligand for the integrins αvβ3, αvβ5, and α9β1. Since the domain serving as the ligand is considered to be around the RGD motif of the amino-terminal domain of DANCE, each recombinant protein of a DANCE mutant wherein RGD was replaced with RGE for one-amino-acid substitution (RGE DANCE), and amino-terminal cleaved form of DANCE (ΔND DANCE) were purified, and these, along with full-length DANCE, were subjected to vascular endothelial cell adhesion assay (FIG. 13).

[4] = molecular target: T1, DANCE (Bos taurus, UniProt Q5EA62); experiment: Precipitation of DANCE-binding proteins from smooth muscle cell culture supernatant (homo-complex); conditions: 50 μg recombinant human DANCE mixed with 35S-labeled bovine arterial smooth muscle cell supernatant, anti-FLAG precipitation
T1 construct: After bovine arterial smooth muscle cells seeded on a 9-cm plate were labeled with 35S-Met and Cys for 24 hours; host or cells: bovine arterial smooth muscle cells (culture supernatant); bait purified from stably transfected 293T cells
T1 sequence (Q5EA62 24-448): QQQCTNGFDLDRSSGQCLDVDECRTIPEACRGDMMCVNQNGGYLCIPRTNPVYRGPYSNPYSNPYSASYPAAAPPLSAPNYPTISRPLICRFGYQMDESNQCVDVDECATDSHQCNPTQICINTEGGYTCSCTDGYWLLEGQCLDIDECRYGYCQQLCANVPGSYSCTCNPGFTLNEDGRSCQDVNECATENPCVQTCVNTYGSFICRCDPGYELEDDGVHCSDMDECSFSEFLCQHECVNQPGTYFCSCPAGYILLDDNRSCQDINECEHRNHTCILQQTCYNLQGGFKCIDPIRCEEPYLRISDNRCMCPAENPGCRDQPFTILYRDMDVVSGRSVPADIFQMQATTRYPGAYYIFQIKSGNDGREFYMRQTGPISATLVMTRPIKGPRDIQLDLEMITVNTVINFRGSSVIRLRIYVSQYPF
T1 sequence (Q9UBX5 24-448 partner): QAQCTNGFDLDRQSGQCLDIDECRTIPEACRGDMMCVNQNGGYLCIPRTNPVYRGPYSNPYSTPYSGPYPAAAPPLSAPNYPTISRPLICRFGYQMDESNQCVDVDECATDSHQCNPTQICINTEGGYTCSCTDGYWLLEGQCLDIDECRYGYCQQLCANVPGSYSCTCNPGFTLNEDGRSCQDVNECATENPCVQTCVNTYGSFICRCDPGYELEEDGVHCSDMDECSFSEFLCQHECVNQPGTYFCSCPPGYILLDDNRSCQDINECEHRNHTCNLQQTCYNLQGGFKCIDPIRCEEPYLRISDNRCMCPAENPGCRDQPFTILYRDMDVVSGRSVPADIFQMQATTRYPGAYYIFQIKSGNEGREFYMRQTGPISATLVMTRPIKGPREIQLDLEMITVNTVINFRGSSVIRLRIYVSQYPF
Experimental: (§1) After bovine arterial smooth muscle cells seeded on a 9-cm plate were labeled with 35S-Met and Cys for 24 hours, the culture supernatant and 50 μg of recombinant human DANCE (with C-terminal FLAG and 6×His) were mixed and precipitated with anti-FLAG agarose (Sigma), and the resulting precipitate was developed by SDS-PAGE and autoradiography was performed. The same culture supernatant was immunoprecipitated with commercially available antibodies against elastic fiber constituent protein (elastin, fibrillin 1, fibrillin 2 and LTBP2), and developed with the same SDS-PAGE gel, and autoradiography was performed.

[5] = system: human skin fibroblasts; experiment: Formation of elastic fibers in cultured human skin fibroblasts; assay type: cell-based
Experimental: Human fibroblasts were kindly supplied by the Department of Plastic Surgery, Kyoto University Hospital. A cover glass was placed on the bottom of a 24-well plate, on which human fibroblasts were seeded at 7.5×10^4 cells per well, and cultured in a DMEM medium supplemented with 10% FBS at 37° C. in the presence of 5% CO2. After the plate washed with PBS on Day 3, the medium was exchanged with a DMEM/F12 medium not supplemented with FBS, and purified DANCE protein, cleaved form of DANCE protein 4 μg/ml, or FBS was added. Cultivation was continued at 37° C. in the presence of 5% CO2, and the cells were fixed and immunologically stained on Day 14.
On Day 14 of cultivation, the cells were washed with 1 ml of PBS three times, after which they were fixed with 100% methanol at −20° C. for 30 minutes. After washing with PBS, the cells were subjected to blocking with a PBS containing 2% BSA at room temperature for 30 minutes, after which the cells were incubated with the polyclonal anti-elastin antibody (dilution rate 1/100) and the monoclonal anti-FLAG antibody (dilution rate 1/100) at room temperature for at least 1 hour. The cells were washed with PBS and further incubated with the anti-rabbit Alexa Fluor 488 antibody (dilution rate 1/100) and the anti-mouse Alexa Fluor 546 antibody (dilution rate 1/100) at room temperature for 1 hour. After washing with PBS, the cells were fixed with 4% para-formaldehyde at room temperature for 10 minutes and again washed with PBS, after which the sample was mounted onto a glass slide using a DAPI-containing Vectashield. Examination was performed using a confocal microscope.
Human skin fibroblasts were seeded to reach confluency; the medium was replaced with serum-free medium or a medium containing 10% fetal calf serum; the cells were cultured for 2 weeks; the formation of elastic fibers was analyzed by immunostaining with anti-elastin antibody.

[6] = molecular target: T2, LTBP2 (Bos taurus, UniProt Q28019); experiment: Precipitation of DANCE-binding proteins from smooth muscle cell culture supernatant (LTBP2); conditions: 50 μg recombinant human DANCE mixed with 35S-labeled bovine arterial smooth muscle cell supernatant, anti-FLAG precipitation
T2 construct: host or cells: bovine arterial smooth muscle cells (culture supernatant); bait purified from stably transfected 293T cells
T2 sequence (Q28019 36-1842, one chain of several): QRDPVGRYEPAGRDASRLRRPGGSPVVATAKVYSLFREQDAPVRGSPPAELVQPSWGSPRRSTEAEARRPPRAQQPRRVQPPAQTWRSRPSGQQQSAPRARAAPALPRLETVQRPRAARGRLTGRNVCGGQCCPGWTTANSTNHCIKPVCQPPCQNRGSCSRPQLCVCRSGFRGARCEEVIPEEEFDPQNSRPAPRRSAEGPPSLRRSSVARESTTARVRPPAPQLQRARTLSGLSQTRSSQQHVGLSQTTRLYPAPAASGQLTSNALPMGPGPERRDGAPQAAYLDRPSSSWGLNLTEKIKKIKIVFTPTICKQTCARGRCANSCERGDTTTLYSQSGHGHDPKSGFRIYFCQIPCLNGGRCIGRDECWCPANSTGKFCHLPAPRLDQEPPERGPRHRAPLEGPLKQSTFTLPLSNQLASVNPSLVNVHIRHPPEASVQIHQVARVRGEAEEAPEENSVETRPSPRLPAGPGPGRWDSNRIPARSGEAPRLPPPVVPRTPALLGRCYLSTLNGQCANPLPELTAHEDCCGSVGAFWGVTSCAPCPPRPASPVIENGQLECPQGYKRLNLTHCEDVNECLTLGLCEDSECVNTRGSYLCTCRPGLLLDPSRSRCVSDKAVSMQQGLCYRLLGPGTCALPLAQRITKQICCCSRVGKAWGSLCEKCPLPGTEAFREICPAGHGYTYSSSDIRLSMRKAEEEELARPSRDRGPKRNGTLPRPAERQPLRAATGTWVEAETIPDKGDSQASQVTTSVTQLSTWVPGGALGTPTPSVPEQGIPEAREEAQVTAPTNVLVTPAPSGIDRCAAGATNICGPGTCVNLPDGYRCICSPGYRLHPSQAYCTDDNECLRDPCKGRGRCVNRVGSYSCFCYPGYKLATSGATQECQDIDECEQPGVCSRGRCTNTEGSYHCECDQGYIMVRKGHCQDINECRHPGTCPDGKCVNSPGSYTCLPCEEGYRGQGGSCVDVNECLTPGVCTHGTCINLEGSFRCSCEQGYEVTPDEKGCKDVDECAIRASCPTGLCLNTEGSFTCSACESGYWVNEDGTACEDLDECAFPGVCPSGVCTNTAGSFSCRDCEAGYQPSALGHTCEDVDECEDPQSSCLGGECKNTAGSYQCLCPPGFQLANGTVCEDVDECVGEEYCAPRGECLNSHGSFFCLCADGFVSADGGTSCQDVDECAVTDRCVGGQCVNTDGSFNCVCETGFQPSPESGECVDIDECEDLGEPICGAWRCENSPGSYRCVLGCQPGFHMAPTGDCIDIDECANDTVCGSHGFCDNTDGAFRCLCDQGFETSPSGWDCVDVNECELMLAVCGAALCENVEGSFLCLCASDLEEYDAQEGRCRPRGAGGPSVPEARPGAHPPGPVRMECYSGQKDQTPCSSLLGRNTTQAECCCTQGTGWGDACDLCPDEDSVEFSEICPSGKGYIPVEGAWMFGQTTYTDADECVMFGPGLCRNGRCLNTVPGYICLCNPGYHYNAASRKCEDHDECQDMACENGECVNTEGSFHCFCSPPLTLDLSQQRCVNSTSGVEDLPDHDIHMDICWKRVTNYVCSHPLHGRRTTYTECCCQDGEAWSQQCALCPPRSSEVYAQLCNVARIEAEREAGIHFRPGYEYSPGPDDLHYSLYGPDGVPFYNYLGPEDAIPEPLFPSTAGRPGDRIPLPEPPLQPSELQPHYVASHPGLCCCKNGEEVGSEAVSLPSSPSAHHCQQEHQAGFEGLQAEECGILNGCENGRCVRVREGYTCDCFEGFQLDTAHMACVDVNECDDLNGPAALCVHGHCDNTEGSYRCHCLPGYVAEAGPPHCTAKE
Experimental: as §1

[7] = molecular target: T3, human lysyl oxidase (Homo sapiens, UniProt P28300); experiment: In vitro binding assay, DANCE with lysyl oxidase; conditions: anti-FLAG precipitation, anti-Myc detection
T3 construct: The 22nd amino acid to the 417th amino acid of the polypeptide (417 amino acids) encoded by human lysyl oxidase; expressed in transfected cells
T3 sequence (P28300 22-417): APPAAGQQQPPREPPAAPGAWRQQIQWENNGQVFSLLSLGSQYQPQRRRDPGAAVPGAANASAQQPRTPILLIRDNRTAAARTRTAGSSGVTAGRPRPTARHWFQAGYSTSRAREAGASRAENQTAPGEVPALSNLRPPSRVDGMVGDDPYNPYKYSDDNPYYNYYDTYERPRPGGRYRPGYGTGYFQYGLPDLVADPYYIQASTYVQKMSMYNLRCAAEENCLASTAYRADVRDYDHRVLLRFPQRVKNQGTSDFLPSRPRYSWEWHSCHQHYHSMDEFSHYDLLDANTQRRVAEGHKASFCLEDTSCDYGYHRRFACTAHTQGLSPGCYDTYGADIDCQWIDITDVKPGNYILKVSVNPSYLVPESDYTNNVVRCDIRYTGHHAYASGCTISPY
T3 sequence (Q9UBX5 24-448 partner): T1 sequence (Q9UBX5 24-448 partner)
Experimental: The 22nd amino acid to the 417th amino acid of the polypeptide (417 amino acids) encoded by human lysyl oxidase (GenBank accession number: AF039291.1) cDNA was amplified by a PCR method and incorporated in the XbaI/NotI site of pEF6/ssMyc.
A human DANCE construct with FLAG tag (FIG. 8), a human DANCE construct with Myc tag, and a human LTBP2 construct were separately transfected to 293T cells. After cultivation in serum-free medium for 48 hours, each culture supernatant and cell extract were mixed, and this was used as the protein solution. A protein solution from the DANCE construct with FLAG tag and a protein solution from DANCE or LTBP2 with Myc tag were mixed on ice for 1 hour, and precipitated with anti-FLAG antibody, and the resulting precipitate was developed by SDS-PAGE, and detected using anti-Myc antibody or anti-FLAG antibody.
The assay was performed in the same manner as Example 6 except that a precipitate obtained using anti-FLAG antibody was developed by SDS-PAGE and detected using anti-Myc antibody.

Molecule: CC(C)C[C@H](NC(=O)[C@H]1O[C@@H]1C(=O)O)C(=O)NCCCCN=C(N)N [E64]
- inhibition of the cleavage of DANCE [1]: not inhibited

Molecule: aprotinin
- inhibition of the cleavage of DANCE [1]: inhibited

B1: mutated form of DANCE: mutated form of DANCE resulting from the substitution of the 77th arginine of DANCE with alanine (protein, UniProt Q9UBX5 24-448, looked up, variant R77A)
Fibulin-5: T1 sequence (Q9UBX5 24-448 partner) with R54A
- resistance to cleavage with a protease [2]: exhibit resistance to cleavage with a protease

B2: RGE DANCE: DANCE mutant wherein RGD was replaced with RGE for one-amino-acid substitution (protein)
chain: T1 sequence (Q9UBX5 24-448 partner) with D33E
modifications: left off: small tags and cut ends
notes: DANCE mutant wherein RGD was replaced with RGE for one-amino-acid substitution
- cell adhesion activity [3]: almost no cell adhesion activity

- formation of a homo-complex [4]: forms a homo-complex
- binding to LTBP2 [6]: binds to LTBP2
- binding to lysyl oxidase [7]: suggested to bind to lysyl oxidase
B3: DANCE: secretory protein (developmental arteries and neural crest EGF-like; fibulin-5), SEQ ID NO:2 or 4; recombinant human form with C-terminal FLAG and 6×His (protein, listed as Homo sapiens)
chain: MPGIKRILTVTILALCLPSPGNAQAQCTNGFDLDRQSGQCLDIDECRTIPEACRGDMMCVNQNGGYLCIPRTNPVYRGPYSNPYSTPYSGPYPAAAPPLSAPNYPTISRPLICRFGYQMDESNQCVDVDECATDSHQCNPTQICINTEGGYTCSCTDGYWLLEGQCLDIDECRYGYCQQLCANVPGSYSCTCNPGFTLNEDGRSCQDVNECATENPCVQTCVNTYGSFICRCDPGYELEEDGVHCSDMDECSFSEFLCQHECVNQPGTYFCSCPPGYILLDDNRSCQDINECEHRNHTCNLQQTCYNLQGGFKCIDPIRCEEPYLRISDNRCMCPAENPGCRDQPFTILYRDMDVVSGRSVPADIFQMQATTRYPGAYYIFQIKSGNEGREFYMRQTGPISATLVMTRPIKGPREIQLDLEMITVNTVINFRGSSVIRLRIYVSQYPF
modifications: C-terminal FLAG and 6xHis tags
notes: secretory protein (developmental arteries and neural crest EGF-like); recombinant human form with C-terminal FLAG and 6×His
- formation of elastic fibers (anti-elastin immunostaining) ([5]; protein added to serum-free medium at 4 μg/ml, cultured for 2 weeks): elastic fibers were formed at a higher level than with the serum-containing medium
- localization of the added recombinant protein (anti-FLAG antibody) ([5]; serum-free medium, 4 μg/ml): co-localized with the elastic fibers formed
- cell adhesion activity [3]: cell adhesion was promoted with dependence on the concentration of the protein used for coating
